{
  "source": "patent US20040058356A1",
  "about": "“Methods for global profiling gene regulatory element activity” (priority 2001, published 2004)",
  "key": {"PC12 cells [1]": {"tested_on": "PC12 cells", "assay": "EMSA with 32P-labeled transcription factor binding site oligonucleotides, PC12 nuclear extracts", "assay_type": "cell-based, rat", "settings": "treated vs untreated PC12 cells", "method": "Confirmation of the increase in the transcription factor AP-1 binding activity was performed by electrophoretic mobility shift assay (EMSA). Nuclear extracts obtained from PC cells either treated with NGF-beta or untreated were combined in separate binding reactions. Each reaction also contained a ^32P-labeled oligonucleotide comprising a binding site for a specific transcription factor. […] In contrast, when the oligonucleotide was specific for the OCT1 binding site (lanes 7 and 8), no increase in gel-shifted material was observed."}, "PC12 cells [2]": {"tested_on": "PC12 cells", "assay": "Global regulatory element activity profiling with PC12 nuclear extracts", "assay_type": "cell-based, rat", "settings": "treated vs untreated PC12 cells, FIG. 3", "method": "Rat pheochromocytoma (PC) cells (cell line PC12; ATCC Number CRL-1721) were grown in high glucose Dulbecco's Modified Eagle Medium (DMEM) in the presence of 10% horse serum, and then transferred to serum-free DMEM plus N2 supplement (Invitrogen) containing 200 ng/ml Nerve Growth Factor-beta (NGF-beta; Sigma). After a 5 hour exposure, the cells were removed from the dishes, washed with PBS, and collected by centrifugation for regulatory element activity profiling.\nGlobal regulatory element activity profiling was carried out using nuclear extracts from cells that were either untreated or treated with NGF-beta. Known transcription factor binding sites present in the DNA sequences were counted as described for Jurkat cells. Bars indicate the percentage of DNA fragments containing selected cis sites that were isolated in binding reactions containing nuclear extracts from either untreated (white bars) or NGFbeta-treated (black bars) PC12 cells. It can be seen that NGF treatment led to an increase in binding activity for AP 1, ATF and TCF11 (among others), while other activities, for example, E2F and RFX1, were reduced after NGF treatment."}},
  "data": [
    {"molecule": "Nerve Growth Factor-beta (protein, UniProt P01139 122-241, looked up, Beta-nerve growth factor, Nerve Growth Factor-beta (Sigma) used to treat PC12 cells) Beta-nerve growth factor: SSTHPVFHMGEFSVCDSVSVWVGDKTTATDIKGKEVTVLAEVNINNSVFRQYFFETKCRASNPVESGCRGIDSKHWNSYCTTTHTFVKALTTDEKQAAWRFIRIDTACVCVLSRKATRRG", "values": [
      {"measurement": "AP-1 binding site gel-shifted material (DNA-protein complexes)", "setting": "PC12 cells [1]; FIG. 4 lanes 3 and 4", "value": "significant increase"},
      {"measurement": "OCT1 binding site gel-shifted material", "setting": "PC12 cells [1]; FIG. 4 lanes 7 and 8", "value": "no increase"},
      {"measurement": "AP 1 binding activity", "setting": "PC12 cells [2]", "value": "increase"},
      {"measurement": "ATF binding activity", "setting": "PC12 cells [2]", "value": "increase"},
      {"measurement": "E2F binding activity", "setting": "PC12 cells [2]", "value": "reduced"},
      {"measurement": "RFX1 binding activity", "setting": "PC12 cells [2]", "value": "reduced"},
      {"measurement": "TCF11 binding activity", "setting": "PC12 cells [2]", "value": "increase"}
    ]}
  ]
}
